Experiments:
[1] = target: T1, HLA-A*02:01/MAGE-A4^230-239 displayed on cells (MAGE-A4^230-239 pulsed T2 cells; NCI-H1703, A375, THP1, … (human, UniProt P04439 25-365 at identity 0.94); P61769 21-119); assay: cell-based or functional assay
[2] = target: T1, HLA-A*02:01/MAGE-A4^230-239 displayed …; assay: cell-based or functional assay; remark: listed apart in the source
[3] = target: T2, HLA-A*02:01/MAGE-A4^230-239, soluble recombinant biotinylated pHLA (human, UniProt P04439 25-299 at identity 0.94); P61769 21-119, biotinylated); assay: ELISA, soluble biotinylated pHLA on neutravidin, scDb, protL-HRP
T2 construct: Empty biotinylated HLA-A2 monomers (Tetramer Shop) loaded with synthetic peptide; also called MAGE-A4 pMHC; MAGE-A4-pHLA
Method: ELISA plates were coated with 5 μg/mL NeutrAvidin in PBS and incubated 16 h/4° C. (step (a)) and blocked with 5% skim milk powder in PBST for 1 h/room temperature (RT) (step (c)). […] Bound phage particles were detected with an anti-Fd antibody (anti-M13-HRP (Amersham Biosciences)), whereas bound IgG1 and scDb was detected with HRP conjugated protein L (Genscript) (step (i)). […] Plates were developed with TMB solution and read at 450 nm using a microplate reader (step (k)). Between each layer, the plates were washed 3× with PBST (steps (b), (d), (f), (h), and (j)).

[4] = target: T1, HLA-A*02:01/MAGE-A4^230-239 displayed …; assay: cell-based or functional assay; remark: listed apart in the source
[5] = target: T1, HLA-A*02:01/MAGE-A4^230-239 displayed …; assay: cell-based or functional assay; remark: listed apart in the source
[6] = target: T2, HLA-A*02:01/MAGE-A4^230-239, soluble …; assay: SPR, biotinylated pHLA on neutravidin chip, scDb without His-tag injected (Assay 6-2)
[7] = target: T2, HLA-A*02:01/MAGE-A4^230-239, soluble …; assay: SPR, biotinylated pHLA on neutravidin chip, Fab injected (Assay 6-1); Fab format

Binder	EC50 vs. NCI-H1703 (pM), T-cell specific killing [1] [pM]	IFNγ EC50 vs. target positive cells (pM) [2] [pM]	EC50 [3] [nM]	EC50 vs. A375 (pM), T-cell specific killing [4] [pM]	EC50 vs. C-33-A (pM), T-cell specific killing [5] [pM]	EC50 vs. HuTu80 (pM), T-cell specific killing [5] [pM]	Kd [6] [nM]	Kd [7] [nM]
AM16 scDb (bispecific antibody, as m68) DIQLTQSPSSLSASVGDRVTISCRASQSIMTYLNWYQQRPGKAPKLLIYSASRLQSGVPSRFSGSGYGTEFTLTISSLQPEDFATYYCQQSYSTPFTFGPGTKVDIKGGGGSEVQLQQSGPELVKPGASMKISCKASGYSFTGYTMNWVKQSHGKNLEWMGLINPYKGVSTYNQKFKDKATLTVDKSSSTAYMELLSLTSEDSAVYYCARSGYYGDSDWYFDVWGAGTTVTVSSGGGGSGGGGSGGGGSDIQMTQTTSSLSASLGDRVTISCRASQDIRNYLNWYQQKPDGTVKLLIYYTSRLHSGVPSKFSGSGSGTDYSLTISNLEQEDIATYFCQQGNTLPWTFAGGTKLEIKGGGGSQVQLVQSGAEVKKPGASVKVSCKVSGYTLTELSMHWVRQAPGKGLEWMGGFDPEDGETIYAQKFQGRVTMTEDTSTDTAYMELSSLRSEDTAVYYCATDQGSSWGFYWGQGTLVTVSS	5.3	12.3	1.85	–	–	–	–	–
AM2 scDb (bispecific antibody, VLA-VHB-VLB-VHA, anti-CD3 UCHT1) DIRVTQSPSSLSASVGDRVTITCRASQNIMWYLNWYQQKPGKAPKLLIYAASSLQSGVPSRFSGSGSGTDFTLTISSLQPEDFATYYCQQSYSTPYTFGQGTKLEIKGGGGSEVQLQQSGPELVKPGASMKISCKASGYSFTGYTMNWVKQSHGKNLEWMGLINPYKGVSTYNQKFKDKATLTVDKSSSTAYMELLSLTSEDSAVYYCARSGYYGDSDWYFDVWGAGTTVTVSSGGGGSGGGGSGGGGSDIQMTQTTSSLSASLGDRVTISCRASQDIRNYLNWYQQKPDGTVKLLIYYTSRLHSGVPSKFSGSGSGTDYSLTISNLEQEDIATYFCQQGNTLPWTFAGGTKLEIKGGGGSQVQLVQSGAEVKKPGASVKVSCKVSGYTLTELSMHWVRQAPGKGLEWMGGFDPEDGETIYAQKFQGRVTMTEDTSTDTAYMELSSLRSEDTAVYYCATDQGSSWGFYWGQGTLVTVSS	2.2	4.4	0.32	3.7	7.2	7.8	–	–
AMC9 scDb (bispecific antibody, as m68) DIRVTQSPSSLSASVGDRVTITCRASQNIMWYLNWYQQKPGKAPKLLIYAASSLQSGVPSRFSGSGSGTDFTLTISSLQPEDFATYYCQQSYSTPYTFGQGTKLEIKGGGGSEVQLQQSGPELVKPGASMKISCKASGYSFTGYTMNWVKQSHGKNLEWMGLINPYKGVSTYNQKFKDKATLTVDKSSSTAYMELLSLTSEDSAVYYCARSGYYGDSDWYFDVWGAGTTVTVSSGGGGSGGGGSGGGGSDIQMTQTTSSLSASLGDRVTISCRASQDIRNYLNWYQQKPDGTVKLLIYYTSRLHSGVPSKFSGSGSGTDYSLTISNLEQEDIATYFCQQGNTLPWTFAGGTKLEIKGGGGSQVQLVQSGAEVKKPGASVKVSCKVSGYTLTELSMHWVRQAPGKGLEWMGGFDPEDGETIYAQKFQGRVTMTEDTSTDTAYMELSSLRSEDTAVYYCATDQGASWGFYWGQGTLVTVSS	1.68	7.6	0.62	2.4	1.33	6.6	–	–
AMC11 scDb (bispecific antibody, as m68) DIRVTQSPSSLSASVGDRVTITCRASQNIMWYLNWYQQKPGKAPKLLIYAASSLQSGVPSRFSGSGSGTDFTLTISSLQPEDFATYYCQQAYRIPYTFGQGTKLEIKGGGGSEVQLQQSGPELVKPGASMKISCKASGYSFTGYTMNWVKQSHGKNLEWMGLINPYKGVSTYNQKFKDKATLTVDKSSSTAYMELLSLTSEDSAVYYCARSGYYGDSDWYFDVWGAGTTVTVSSGGGGSGGGGSGGGGSDIQMTQTTSSLSASLGDRVTISCRASQDIRNYLNWYQQKPDGTVKLLIYYTSRLHSGVPSKFSGSGSGTDYSLTISNLEQEDIATYFCQQGNTLPWTFAGGTKLEIKGGGGSQVQLVQSGAEVKKPGASVKVSCKVSGYTLTELSMHWVRQAPGKGLEWMGGFDPEDGETIYAQKFQGRVTMTEDTSTDTAYMELSSLRSEDTAVYYCATDQGSSWGFYWGQGTLVTVSS	0.72	8.5	0.81	2.3	–	–	–	–
AM18 scDb (bispecific antibody, as m68) DIRLTQSPSSLSVSVGDRVTITCRASEDIRYYVNWYQQKPGKAPKLLIYAASSLQSGVPSRFSGSGSGTDFTLTISSLQPEDFATYYCQQSYSTPYTFGQGTKLEIKGGGGSEVQLQQSGPELVKPGASMKISCKASGYSFTGYTMNWVKQSHGKNLEWMGLINPYKGVSTYNQKFKDKATLTVDKSSSTAYMELLSLTSEDSAVYYCARSGYYGDSDWYFDVWGAGTTVTVSSGGGGSGGGGSGGGGSDIQMTQTTSSLSASLGDRVTISCRASQDIRNYLNWYQQKPDGTVKLLIYYTSRLHSGVPSKFSGSGSGTDYSLTISNLEQEDIATYFCQQGNTLPWTFAGGTKLEIKGGGGSQVQLVQSGAEVKKPGASVKVSCKVSGYTLTELSMHWVRQAPGKGLEWMGGFDPEDGETIYAQKFQGRVTMTEDTSTDTAYMELSSLRSEDTAVYYCATDQGSSWGFYWGQGTLVTVSS	4.4	9.5	0.51	–	–	–	–	–
AM11 scDb (bispecific antibody, as m68; without a His-tag in the SPR assay) DIRVTQSPSSLSASVGDRVTITCRADIDIRWYLNWYQQKPGKAPKLLIYAASSLQSGVPSRFSGSGSGTDFTLTISSLQPEDFATYYCQQSYSTPYTFGQGTKLEIKGGGGSEVQLQQSGPELVKPGASMKISCKASGYSFTGYTMNWVKQSHGKNLEWMGLINPYKGVSTYNQKFKDKATLTVDKSSSTAYMELLSLTSEDSAVYYCARSGYYGDSDWYFDVWGAGTTVTVSSGGGGSGGGGSGGGGSDIQMTQTTSSLSASLGDRVTISCRASQDIRNYLNWYQQKPDGTVKLLIYYTSRLHSGVPSKFSGSGSGTDYSLTISNLEQEDIATYFCQQGNTLPWTFAGGTKLEIKGGGGSQVQLVQSGAEVKKPGASVKVSCKVSGYTLTELSMHWVRQAPGKGLEWMGGFDPYLARTIYAQKFQGRVTMTEDTSTDTAYMELSSLRSEDTAVYYCATDQGSSWGFYWGQGTLVTVSS	3.1	7.2	0.17	–	–	–	3.2	–
AMC8 scDb (bispecific antibody, as m68) DIRLTQSPSSLSASVGDRVTMTCRASQTVATYVNWYQQKPGRAPKLLMYVTSIRQSEVPSRFSGDGFGTDFTLTINPLQPDDFATYYCQQAYSTPVTFGQGTKLEIKGGGGSEVQLQQSGPELVKPGASMKISCKASGYSFTGYTMNWVKQSHGKNLEWMGLINPYKGVSTYNQKFKDKATLTVDKSSSTAYMELLSLTSEDSAVYYCARSGYYGDSDWYFDVWGAGTTVTVSSGGGGSGGGGSGGGGSDIQMTQTTSSLSASLGDRVTISCRASQDIRNYLNWYQQKPDGTVKLLIYYTSRLHSGVPSKFSGSGSGTDYSLTISNLEQEDIATYFCQQGNTLPWTFAGGTKLEIKGGGGSQVQLVQSGAEVKKPGASVKVSCKVSGYTLTELSMHWVRQAPGKGLEWMGGFDPEDGETIYAQKFQGRVTMTEDTSTDTAYMELSSLRSEDTAVYYCATDQGASWGFYWGQGTLVTVSS	2.51	7.7	0.88	1.6	–	–	–	–
AM2 Fab (Fab, V domains shown) VH: QVQLVQSGAEVKKPGASVKVSCKVSGYTLTELSMHWVRQAPGKGLEWMGGFDPEDGETIYAQKFQGRVTMTEDTSTDTAYMELSSLRSEDTAVYYCATDQGSSWGFYWGQGTLVTVSS VL: DIRVTQSPSSLSASVGDRVTITCRASQNIMWYLNWYQQKPGKAPKLLIYAASSLQSGVPSRFSGSGSGTDFTLTISSLQPEDFATYYCQQSYSTPYTFGQGTKLEIKR	–	–	–	–	–	–	–	86.3
AM10 Fab (Fab, V domains shown, Fab format) VH: QVQLVQSGAEVKKPGASVKVSCKVSGYTLTELSMHWVRQAPGKGLEWMGGFDPEDGETIYAQKFQGRVTMTEDTSTDTAYMELSSLRSEDTAVYYCATDQGASWGFYWGQGTLVTVSS VL: not shown	–	–	–	–	–	–	–	325
AMC9 Fab (Fab, V domains shown) VH: QVQLVQSGAEVKKPGASVKVSCKVSGYTLTELSMHWVRQAPGKGLEWMGGFDPEDGETIYAQKFQGRVTMTEDTSTDTAYMELSSLRSEDTAVYYCATDQGASWGFYWGQGTLVTVSS VL: DIRVTQSPSSLSASVGDRVTITCRASQNIMWYLNWYQQKPGKAPKLLIYAASSLQSGVPSRFSGSGSGTDFTLTISSLQPEDFATYYCQQSYSTPYTFGQGTKLEIKR	–	–	–	–	–	–	–	15.8
AM15 Fab (Fab, V domains shown) VH: QVQLVQSGAEVKKPGASVKVSCKVSGYTLTELSMHWVRQAPGKGLEWMGGFDPEDGETIYAQKFQGRVTMTEDTSTDTAYMELSSLRSEDTAVYYCATDQGSSWGFYWGQGTLVTVSS VL: not shown	–	–	–	–	–	–	–	148

From US20260209359A1 (NEXTERA, published 2026)
